Consider nine substances from the Immune Epitope Database (IEDB).

The target of experiment [1] is HLA-A*02:01. The experiment is described as follows: IEDB peptide-MHC binding, cellular MHC/competitive/fluorescence; ≥ and ≤ were set here for values at or beyond the usual limits of such assays.
A further experiment concerns the target HLA-C*14:02. The experiment is described as follows: IEDB peptide-MHC binding, purified MHC/direct/fluorescence; filed as Kd, often an IC50 or EC50 that approximates it; ≥ and ≤ were set here for values at or beyond the usual limits of such assays.
The target of a further experiment is HLA-A*02:16. The description is as above. To be noted: source organism: Listeria monocytogenes serotype 4b str. H7858.
Another experiment has as its target HLA-B*51:01. The experiment is described as above. Particulars: source organism: Listeria monocytogenes serotype 4b str. H7858.
Another experiment has as its target HLA-B*57:01. Described as above.
In a further experiment the target is HLA-B*18:01. The description is as above. To be noted: source organism: Listeria monocytogenes serotype 4b str. H7858.
The target in another experiment is HLA-A*02:03. Described as above. Particulars: source organism: Listeria monocytogenes serotype 4b str. H7858.
In experiment [2] the target is HLA-B*15:01. The experiment is described as above.
Experiment [3] has as its target HLA-A*24:03. The description is as above. Particulars: source organism: Listeria monocytogenes serotype 4b str. H7858.
A further experiment has as its target HLA-B*46:01. Described as above.
The next experiment deals with HLA-B*15:17. The description is as above.
The target in the next experiment is HLA-A*29:02. Described as above. Particulars: source organism: Listeria monocytogenes serotype 4b str. H7858.
The target in a further experiment is HLA-C*05:01. The experiment is described as above.
A further experiment addresses HLA-B*27:03. The experiment is described as above. To be noted: source organism: Listeria monocytogenes serotype 4b str. H7858.
For experiment [4], the target named is HLA-A*02:01. The experiment is described as above.
In another experiment the target is HLA-A*02:11. Described as above. To be noted: source organism: Listeria monocytogenes serotype 4b str. H7858.
For experiment [5], the target named is HLA-A*26:01. The experiment is described as above. To be noted: source organism: Listeria monocytogenes serotype 4b str. H7858.
A further experiment addresses HLA-A*68:02. The experiment is described as above.
The target of a further experiment is HLA-A*02:19. The experiment is described as above. Particulars: source organism: Listeria monocytogenes serotype 4b str. H7858.
For a further experiment, the target named is HLA-A*02:12. The experiment is described as above. To be noted: source organism: Listeria monocytogenes serotype 4b str. H7858.
The target of another experiment is HLA-A*69:01. The description is as above.
The target in a further experiment is HLA-A*03:01. The description is as above. To be noted: source organism: Listeria monocytogenes serotype 4b str. H7858.
The target of another experiment is HLA-B*07:02. The description is as above. To be noted: source organism: Camelpox virus M-96.
The target of another experiment is HLA-B*08:01. The experiment is described as above.
The target of the next experiment is HLA-A*01:01. Described as above. To be noted: source organism: Camelpox virus M-96.
The target in the next experiment is HLA-B*48:01. Described as above. To be noted: source organism: Camelpox virus M-96.
For a further experiment, the target named is HLA-B*27:05. Described as above. Particulars: source organism: Camelpox virus M-96.
The next experiment deals with HLA-B*58:01. Described as above. To be noted: source organism: Camelpox virus M-96.
In the next experiment the target is HLA-B*15:09. The experiment is described as above. Particulars: source organism: Variola virus.
In a further experiment the target is HLA-B*08:03. The experiment is described as above. To be noted: source organism: Variola virus.
In experiment [6] the target is HLA-B*15:01. The experiment is described as follows: IEDB peptide-MHC binding, purified MHC/competitive/fluorescence; ≥ and ≤ were set here for values at or beyond the usual limits of such assays. To be noted: source organism: Vaccinia virus WR.
The target of experiment [7] is HLA-A*11:01. The experiment is described as above. To be noted: source organism: Vaccinia virus WR.
The next experiment has as its target HLA-B*15:03. The experiment is described as follows: IEDB peptide-MHC binding, purified MHC/competitive/radioactivity; filed as Kd, often an IC50 or EC50 that approximates it; ≥ and ≤ were set here for values at or beyond the usual limits of such assays. To be noted: source organism: Vaccinia virus WR.
The target of another experiment is HLA-A*30:01. The experiment is described as follows: IEDB peptide-MHC binding, purified MHC/competitive/fluorescence; filed as Kd, often an IC50 or EC50 that approximates it; ≥ and ≤ were set here for values at or beyond the usual limits of such assays. Particulars: source organism: Vaccinia virus WR.
For a further experiment, the target named is HLA-A*31:01. The experiment is described as above. To be noted: source organism: Vaccinia virus WR.
Experiment [8] deals with HLA-A*26:01. The experiment is described as above. Particulars: source organism: Vaccinia virus WR.
Experiment [9] addresses HLA-A*11:01. The description is as above. Particulars: source organism: Vaccinia virus WR.
Another experiment concerns the target HLA-A*26:02. The experiment is described as above. Particulars: source organism: Vaccinia virus WR.
The target in the next experiment is HLA-B*35:01. Described as above. To be noted: source organism: Vaccinia virus WR.
Experiment [10] concerns the target HLA-A*24:03. The description is as above. Particulars: source organism: Bacillus cereus G9241.
A further experiment deals with HLA-C*15:02. The experiment is described as follows: IEDB peptide-MHC binding, purified MHC/direct/fluorescence; filed as Kd, often an IC50 or EC50 that approximates it; ≥ and ≤ were set here for values at or beyond the usual limits of such assays.
The next experiment deals with HLA-C*12:03. Described as above. Particulars: source organism: Giardia lamblia ATCC 50803.
The mark [11] stands for this setting: source organism: Listeria monocytogenes serotype 4b str. H7858.
Where [12] appears, read: source organism: Camelpox virus M-96.
The mark [13] stands for this setting: source organism: Burkholderia pseudomallei 1710b.
Setting [14] is: source organism: Giardia lamblia ATCC 50803.

Broadly, the IC50 is the point on the concentration scale where inhibition reaches its midpoint. Higher therefore signals weaker potency. On to ALGGGATGV, for which, in the experiment with HLA-A*02:01 [1] (source organism: Mycobacterium tuberculosis), the IC50 is 1.4 µM.

Usually Kd stands for a measure of binding affinity in units of concentration. In the experiment with HLA-C*14:02 (source organism: Mycobacterium tuberculosis C), APAAAAQAV returned a Kd of 3.08 µM.

Regarding FRDEAGAIL, the Kd with HLA-A*02:16, with HLA-B*51:01, with HLA-B*57:01 (setting [11]), in the experiment with HLA-B*18:01, in the experiment with HLA-A*02:03 and with HLA-B*15:01 [2] (setting [11]) was no less than 20 µM in each case. Besides, the Kd is no less than 20 µM with HLA-A*24:03 [3]; no less than 20 µM with HLA-B*46:01 (setting [11]); no less than 20 µM with HLA-B*15:17 (setting [11]); no less than 20 µM with HLA-A*29:02; 2.21 µM in the experiment with HLA-C*05:01 (source organism: Listeria monocytogenes FSL R2-503); no less than 20 µM with HLA-B*27:03. Besides, the Kd with HLA-A*02:01 [4] (setting [11]), with HLA-A*02:11, in the experiment with HLA-A*26:01 [5], with HLA-A*68:02 (setting [11]), in the experiment with HLA-A*02:19 and with HLA-A*02:12 was no less than 20 µM throughout. Moreover, the Kd with HLA-A*69:01 (setting [11]) and in the experiment with HLA-A*03:01 was no less than 20 µM in each case.

Consider IQFMHEQGY, for which the Kd was 1.96 µM with HLA-B*57:01 (setting [12]); no less than 20 µM with HLA-B*07:02; no less than 20 µM with HLA-B*08:01 (source organism: Variola virus); 0.052 µM with HLA-B*15:01 [2] (setting [12]); no less than 20 µM with HLA-A*01:01; no less than 20 µM in the experiment with HLA-B*46:01 (setting [12]). Further, the Kd with HLA-B*15:17 (setting [12]) was 0.29 µM; in the experiment with HLA-B*48:01, no less than 20 µM; with HLA-B*27:05, 0.929 µM; in the experiment with HLA-A*02:01 [4] (setting [12]), no less than 20 µM; with HLA-A*68:02 (setting [12]), no less than 20 µM; with HLA-B*58:01, no less than 20 µM. Further, the Kd with HLA-B*15:09 is no less than 20 µM; in the experiment with HLA-A*69:01 (setting [12]), no less than 20 µM; with HLA-B*08:03, no less than 20 µM; with HLA-B*15:03, 0.00366 µM; in the experiment with HLA-A*30:01 it was 0.0024 µM; with HLA-A*31:01, no less than 20 µM. Besides, the Kd with HLA-A*26:01 [8] was no less than 20 µM; with HLA-A*11:01 [9], no less than 20 µM; with HLA-A*26:02, no less than 20 µM; with HLA-B*35:01 it was 0.104 µM. Also, the IC50 in the experiment with HLA-B*15:01 [6] is 6.83 µM; with HLA-A*11:01 [7] it was no less than 108 µM.

As to KFIILLTSF, the Kd with HLA-C*14:02 (source organism: Bacillus cereus G9241) stood at 1.23 µM; in the experiment with HLA-A*24:03 [10], 0.159 µM.

KTADVTVVF: the Kd with HLA-C*05:01 (setting [13]) came to 0.06 µM; with HLA-C*15:02 (setting [13]), 0.253 µM.

In turn, LGIVCPI gave an IC50 with HLA-A*02:01 [1] (source organism: Human papillomavirus 16) of 0.7 µM.

VLDVGDAYFSV: the IC50 in the experiment with HLA-A*02:01 [1] (source organism: Human immunodeficiency virus 1) stood at 7 µM.

In the case of YLYLRPYAL, the Kd was determined as 0.016 µM with HLA-B*08:01 (setting [14]), 3.05 µM in the experiment with HLA-C*15:02 (setting [14]), 0.151 µM with HLA-C*14:02 (setting [14]) and 0.029 µM in the experiment with HLA-C*12:03.
